# How the values were obtained:
# [1] = test system: capped-5′+3′ UTR-luciferase RNA; assay: in vitro rabbit reticulocyte translation of capped reporter RNA in the presence of competitor RNA; type: biochemical; conditions: for inhibition of translation of capped-5′+3′ UTR-luciferase RNA relative to absence of competitor RNA: 5-fold molar excess of competitor RNA, 60 minutes at 37° C., FIG. 1
# Experimental: A 73-residue region from a 3′ her2 UTR (SEQ ID NO: 1) and an N-terminal 310-residue region from a 3′ her2 UTR (SEQ ID NO: 5) are cloned into a construct downstream of a T7-promoter. RNA encoded for by these regions is synthesized using a T7-in vitro transcription kit (Ambion, Inc.; Austin, Tex.).
# To quantitate the maximum level of translation, a capped-5′+3′ UTR-luciferase RNA (0.057 pmoles) is translated in an in vitro rabbit reticulocyte translation system for 60 minutes at 37° C. Then, a capped-5′+3′ UTR-luciferase RNA is translated in the presence of between a 5- to 500-fold molar excess of RNA from either the 73-residue region from a 3′ her2 UTR (SEQ ID NO: 1) or the N-terminal 310-residue region from a 3′ her2 UTR (SEQ ID NO: 5) under the same conditions.
# Capped, in vitro-transcribed Her2 5′ UTR-luciferase-Her2 3′ UTR (5H3H-Luc) and vector only-luciferase (Vector-Luc) are translated in the presence or absence of competitor RNA fragments derived from a Her-2 3′ UTR. Nucleic acid molecules derived from nucleotides 468-540 of a Her2 3′ UTR (468-540) and from residues 468-615 of a Her2 3′ UTR (468-615) each contain the 73-nucleotide sequence (SEQ ID NO:1) essential for suppression of 5′ Her2 UTR repression. […] The percentage of inhibition of expression is less in the presence of the 1-310 fragment with respect to the percentage of inhibition of expression in the presence of either of the nucleic acid molecules containing SEQ ID NO: 1, 468-615 and 468-540. The percentage of inhibition for the 1-310 fragment is dose-dependent, whereas even at only a 5-fold molar excess of competitor RNA conatining SEQ ID NO: 1, expression is only at 25% of the maximum level of translation.
# 48-kDa polypeptide = assay: UV-crosslinking of 32P-labeled RNA with SKBR3 cytoplasmic extracts; type: binding; conditions: for competition for binding of the 48-kDa polypeptide to full-length, labeled Her2 3′ UTR: FIG. 10B; for UV-crosslinking of the 48-kDa polypeptide to labeled RNA: SKBR3 cytoplasmic extracts, FIG. 10A
# Experimental: Total protein from cancer cell lines is incubated with 10 fmoles of ^32P-UTP-labeled RNA for 1 hour at 37° C. in a final volume of 20 μl using Binding Buffer (20 mM Hepes-KOH, pH 7.5, 2.5 mM MgCl2, 100 mM KCl, 20% glycerol, 0.5 mM dithiothreitol, protease inhibitor tablets). Reaction mixtures are UV-irradiated at 254 nm for 10 minutes with a StrataLinker® 11800 (Stratagene; La Jolla, Calif.) in Costar® 96-Well Cell Culture Clusters (CORNING COSTAR Co., Cambridge, Mass.) on ice. The reaction mixtures are then treated with RNAse A (2 mg/ml) for 30 minutes at 37° C. The samples are analyzed by 12% or 10-14% Criterion™ gels (Bio-Rad Laboratories, Inc., Hercules, Calif.) by Sodium Dodecyl Sulfate-Polyacrylamide gel electrophoresis (SDS-PAGE) and are detected by autoradiography.
# To study the role of trans-acting factors in modulating interactions between 5′ and 3′ UTRs, in vitro transcripts are synthesized, labeled, and incubated with cytoplasmic extracts from SKBR3 cells. After UV-crosslinking, unprotected areas of labeled RNA are digested with RNAse A, and the remaining labeled RNA molecules are resolved on SDS-PAGE.
# Instead, a minimal binding region of […], corresponding to the nucleotide sequence from residue 490 to residue 510 of a 3′ Her2 UTR, is essential for the 48-kDa polypeptide to UV-crosslink to a Her2 3′ UTR. […] In comparison, competition with a 500-fold molar excess of nucleic acid molecules with sequences derived from the Her2 5′ UTR is ineffective in titrating out the 48-kDa polypepide.
# Ship-2 uORF = assay: chimeric luciferase constructs with Ship-2 5′ UTR in SKBR3 cells; type: cell-based; conditions: in combination with a Ship-2 5′ UTR, FIG. 7
# Description: Ship-2 mRNA contains a 33 nucleotide uORF (encoding 10 amino acids) that is located 14 nucleotides upstream of the main ORF. The uORF strongly represses translation of the main ORF.
# The presence of TRE1 in the 3′ UTR, when in combination with a Ship-2 5′ UTR, increases expression of luciferase about 5-fold relative to luciferase being flanked by 3′ and 5′ Ship-2 UTRs. Luciferase expression increases when flanked by a 5′ Ship-2 UTR and a chimeric 3′ UTR, consisting of 328 residues of Ship-2 3′ UTR flanked by the 5′ and 3′ end seqeunces of the Her-23′ UTR, relative to luciferase being flanked by 3′ and 5′ Ship-2 UTRs. […] The presence of the 3′ Her2 UTR residues 1-110 (SEQ ID NO: 28) in the chimeric 3′ UTR results in a slight increase in luciferase expression relative to 3′ Ship-2 UTR. Suppression of translational repression occurs in cells with chimeric constructs expressing a Ship-2 3′ UTR containing only TRE1 (SEQ ID NO: 1) from a Her-23′ UTR.
# [2] = test system: luciferase reporter gene linked to a 5′ her2 UTR; assay: luciferase reporter constructs with her2 UTRs transfected into a panel of cell lines; type: cell-based; conditions: luciferase activity 48 hours after transfection
# Experimental: A luciferase reporter gene is linked to her2 UTRs to make various constructs (see FIG. 2). Each construct is transfected into a panel of cell-lines using Fugene® (Hoffmann-La Roche Inc., Nutley, N.J.), and the luciferase activity is measured 48 hours after transfection. The results are expressed as a fold-increase in luciferase activity over the repression caused by the 5′ her2 UTR linked to the luciferase reporter gene. A 5′ her2 UTR (SEQ ID NO: 6) represses translation of a luciferase reporter gene. […] The greatest modulation is observed in the mammalian cancer cell lines that over-express Her2 protein, SKBR-3 and BT-474, about 13-fold and about 10-fold, respectively, showing that the efficiency of translation of a luciferase reporter gene mRNA in Her2 positive cells is regulated by interactions of regions in the 5′ her2 UTR and the 3′ her2 UTR. Moreover, the effect is more pronounced in high Her2 expressing cells relative to low Her2 expressing cell lines, especially for breast cancer cells.
# [3] = test system: luciferase reporter gene linked to a 5′ her2 UTR; assay: luciferase constructs with 3′ her2 UTR variants transfected into SKBR3 cells; type: cell-based; conditions: 48 hours after transfection
# Experimental: A luciferase reporter gene is linked to 3′ her2 UTR variants to make various constructs (see FIG. 6). Each construct is transfected into cell-lines, SKBR3 cells in particular, using Fugene® (Hoffmann-La Roche Inc., Nutley, N.J.), and the luciferase activity is measured 48 hours after transfection. The results are expressed as a fold-increase in luciferase activity over the repression caused by a 5′ her2 UTR (SEQ ID NO: 6) linked to the luciferase reporter gene (see FIG. 6). A 5′ her2 UTR represses translation of a reporter gene, such as luciferase.
molecule,measurement,setting,value
"SEQ ID NO: 5: first 310 nucleotides of the Her2 3′ UTR, does not contain SEQ ID NO: 1; competitor RNA (nucleic acid) DNA: TGAACCAGAAGGCCAAGTCCGCAGAAGCCCTGATGTGTCCTCAGGGAGCAGGGAAGGCCTGACTTCTGCTGGCATCAAGAGGTGGGAGGGCCCTCCGACCACTTCCAGGGGAACCTGCCATGCCAGGAACCTGTCCTAAGGAACCTTCCTTCCTGCTTGAGTTCCCAGATGGCTGGAAGGGGTCCAGCCTCGTTGGAAGAGGAACAGCACTGGGGAGTCTTTGTGGATTCTGAGGCCCTGCCCAATGAGACTCTAGGGTCCAGTGGATGCCACAGCCCAGCTTGGCCCTTTCCTTCCAGATCCTGGGTAC",inhibition of translation of capped-5′+3′ UTR-luciferase RNA relative to absence of competitor RNA,[1],not significantly inhibited
same,"percentage of inhibition of expression, dependence on amount of competitor","[1]; competitor RNA, FIG. 9",dose-dependent
"SEQ ID NO: 1: 73-residue region (residues 468-540) from a 3′ her2 UTR, translational regulatory element TRE1; used as competitor RNA (nucleic acid, competitor RNA from UTR region, further chemistry not given here) DNA: CTTTTCTGTTTAGTTTTTACTTTTTTTGTTTTGTTTTTTTAAAGACGAAATAAAGACCCAGGGGAGAATGGGT","competition for binding of the 48-kDa polypeptide to full-length, labeled Her2 3′ UTR",48-kDa polypeptide; 50-fold molar excess of unlabeled competitor,prevents binding
same,UV-crosslinking of the 48-kDa polypeptide to labeled RNA,48-kDa polypeptide,crosslinks
same,increase of luciferase expression relative to luciferase flanked by 3′ and 5′ Ship-2 UTRs,Ship-2 uORF,about 5 fold
same,inhibition of translation of capped-5′+3′ UTR-luciferase RNA relative to absence of competitor RNA,[1],about 75%
"3′ her2 UTR: naturally occurring Her2 3′ UTR, linked downstream of luciferase in reporter constructs (nucleic acid) DNA: TGAACCAGAAGGCCAAGTCCGCAGAAGCCCTGATGTGTCCTCAGGGAGCAGGGAAGGCCTGACTTCTGCTGGCATCAAGAGGTGGGAGGGCCCTCCGACCACTTCCAGGGGAACCTGCCATGCCAGGAACCTGTCCTAAGGAACCTTCCTTCCTGCTTGAGTTCCCAGATGGCTGGAAGGGGTCCAGCCTCGTTGGAAGAGGAACAGCACTGGGGAGTCTTTGTGGATTCTGAGGCCCTGCCCAATGAGACTCTAGGGTCCAGTGGATGCCACAGCCCAGCTTGGCCCTTTCCTTCCAGATCCTGGGTACTGAAAGCCTTAGGGAAGCTGGCCTGAGAGGGGAAGCGGCCCTAAGGGAGTGTCTAAGAACAAAAGCGACCCATTCAGAGACTGTCCCTGAAACCTAGTACTGCCCCCCATGAGGAAGGAACAGCAATGGTGTCAGTATCCAGGCTTTGTACAGAGTGCTTTTCTGTTTAGTTTTTACTTTTTTTGTTTTGTTTTTTTAAAGACGAAATAAAGACCCAGGGGAGAATGGGTGTTGTATGGGGAGGCAAGTGTGGGGGGTCCTTCTCCACACCCACTTTGTCCATTTGCAAATATATTTTGGAAAAC",UV-crosslinking of the 48-kDa polypeptide to labeled RNA,48-kDa polypeptide,crosslinks
same,Fold-increase over 5′ UTR Average,[2]; 293T,1.54 ± 1.0
same,Fold-increase over 5′ UTR Average,[2]; HeLa,2.23 ± 0.5
same,Fold-increase over 5′ UTR Average,[2]; Hs578.1,2 ± 0.5
Her2 5′ UTR: naturally occurring Her2 5′ UTR; RNA probe and competitor in UV-crosslinking (nucleic acid) DNA: GGCTGCTTGAGGAAGTATAAGAATGAAGTTGTGAAGCTGAGATTCCCCTCCATTGGGACCGGAGAAACCAGGGGAGCCCCCCGGGCAGCCGCGCGCCCCTTCCCACGGGGCCCTTTACTGCGCCGCGCGCCCGGCCCCCACCCCTCGCAGCACCCCGCGCCCCGCGCCCTCCCAGCCGGGTCCAGCCGGAGCCATGGGGCCGGAGCCGCAGTGAGCACC,"competition for binding of the 48-kDa polypeptide to full-length, labeled Her2 3′ UTR",48-kDa polypeptide; 500-fold molar excess of competitor,ineffective
same,UV-crosslinking of the 48-kDa polypeptide to labeled RNA,48-kDa polypeptide,does not crosslink
"SEQ ID NO: 29: Her2 3′ UTR variant with nucleotides 1-110 deleted at the 5′ end, in a luciferase construct (nucleic acid, luciferase construct, Her2 3′ UTR variant with nucleotides 1-110 deleted at the 5′ end, in a luciferase construct) DNA: CCTGCCATGCCAGGAACCTGTCCTAAGGAACCTTCCTTCCTGCTTGAGTTCCCAGATGGCTGGAAGGGGTCCAGCCTCGTTGGAAGAGGAACAGCACTGGGGAGTCTTTGTGGATTCTGAGGCCCTGCCCAATGAGACTCTAGGGTCCAGTGGATGCCACAGCCCAGCTTGGCCCTTTCCTTCCAGATCCTGGGTACTGAAAGCCTTAGGGAAGCTGGCCTGAGAGGGGAAGCGGCCCTAAGGGAGTGTCTAAGAACAAAAGCGACCCATTCAGAGACTGTCCCTGAAACCTAGTACTGCCCCCCATGAGGAAGGAACAGCAATGGTGTCAGTATCCAGGCTTTGTACAGAGTGCTTTTCTGTTTAGTTTTTACTTTTTTTGTTTTGTTTTTTTAAAGACGAAATAAAGACCCAGGGGAGAATGGGTGTTGTATGGGGAGGCAAGTGTGGGGGGTCCTTCTCCACACCCACTTTGTCCATTTGCAAATATATTTTGGAAAAC",fold-increase in luciferase expression over 5′ her2 UTR+Luc,[3],1.7±0.9 fold

# Source: patent publication US20070072186A1, “Methods and agents for screening for compounds capable of modulating her2 expression” (priority 2003, published 2007)
